The target of the test is T1, human CTLA-4 expressed on cells (human, UniProt P16410 36-223).
T1 construct: whole, on cells; On stably or transiently transfected HEK293 cells; also called hCTLA-4; HEK293-hCTLA-4 cells
The test is described as follows: flow cytometry on HEK293-hCTLA-4 cells. As to the method:
To test the binding of antibodies to CTLA-4 under more physiological conditions, the binding of CTLA-4 antibodies to cell-surface CTLA-4 was tested. […] The surface expression of hCTLA-4 in the obtained cell line was tested using a commercial anti-CTLA-4 antibody and compared to the parent cell line (HEK293 without transfection). […] The anti-CTLA-4 antibodies were incubated in serial dilution concentrations with the HEK293-hCTLA-4 cells for 1 hour on ice. Following a wash step, an anti-human antibody conjugated to ALEXA FLUOR® 647® was added for an additional hour. The cells were washed, and propidium iodide (PI) was added to exclude dead cells. The fluorescent signal was measured using FACS and analyzed. Dead cells were removed based on the PI signal. The population was gated based on forward and side scatter (FSC and SSC) parameters, and doublets were removed. The Median Fluorescent Intensity (MFI) of the appropriate channel was calculated for the live single cells from each group. The MFI was plotted versus antibody concentration in Prism software (V6.01) and kinetic parameters were obtained using a curve fit dose response function with four parameters. […] The lower EC₅₀ values indicate increased binding affinity to cell surface hCTLA-4.

Broadly, the EC50 is the midpoint of the concentration-response curve. A lower EC50 goes with greater potency.

T1 sequence (P16410 36-223): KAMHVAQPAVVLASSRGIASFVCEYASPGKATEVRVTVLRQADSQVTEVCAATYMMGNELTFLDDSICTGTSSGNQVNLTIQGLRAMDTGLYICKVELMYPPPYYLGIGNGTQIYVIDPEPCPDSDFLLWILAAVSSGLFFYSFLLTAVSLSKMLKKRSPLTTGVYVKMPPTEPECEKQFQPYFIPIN

B1: Ab55h-PM1 (antibody, V domains shown)
VH: QVQLQESGPGLVKPSETLSLTCAVSGYSISGDYYWNWIRQPPGKGLEWIGSIYHSGYTYYNPSLKSRVTISVDTSKNQFSLKLSSVTAADTAVYYCARDSGWYVIAFDYWGQGTLVTVSS
VL: EIVMTQSPATLSVSPGERATLSCRASQSVSSNLAWYQEKPGQAPRLLIYGASTRATGIPARFSGSGSGTEFTLTISSLQSEDFAVYYCQQYNNWPPLTFGGGTKVEIK
Molecule B1 registered a half-maximal effective concentration (EC50) of 0.27 nM. This lies in the sub-nanomolar range.

B2: Ab55h-PM8 (antibody, V domains shown)
VH: QVQLQESGPGLVKPSETLSLTCAVSGYSISGDYYWGWIRQPPGKGLEWIGSIYHSGYTYYNPSLKSRVTISVDTSKNQFSLKLSSVTAADTAVYYCARDSGWYVIAFDYWGQGTLVTVSS
VL: EIVMTQSPATLSVSPGERATLSCRASQSVSSNLAWYQEKPGQAPRLLIYAASTRATGIPARFSGSGSGTEFTLTISSLQSEDFAVYYCQQYNNWPPLTFGGGTKVEIK
With B2, it took 0.16 nM to reach a half-maximal effect (EC50). Against the preceding molecule, the EC50 is about 1.7-fold lower.

B3: Ab55h-PM4 (antibody, V domains shown)
VH: QVQLQESGPGLVKPSETLSLTCAVSGYSISGDYYWGWIRQPPGKGLEWIGSIYHSGYTYYNPSVKSRVTISVDTSKNQFSLKLSSVTAADTAVYYCARDSGWYVIAFDYWGQGTLVTVSS
VL: EIVMTQSPATLSVSPGERATLSCRASQSVSSNLAWYQEKPGQAPRLLIYGASTRATGIPARFSGSGSGTEFTLTISSLQSEDFAVYYCQQYNNWPPLTFGGGTKVEIK
On to B3, for which the midpoint of the response, the EC50, lay at 0.39 nM. This EC50 is about 2.4-fold higher than that of the molecule before.

B4: Ab55h-PM5 (antibody, V domains shown)
VH: QVQLQESGPGLVKPSETLSLTCAVSGYSISGDYYWGWIRQPPGKGLEWIGSIYHSGYTYYNPSLKSRVTISVDTSKNQFSLKLSSVTAADTAVYYCARDSGWYVIAFAYWGQGTLVTVSS
VL: EIVMTQSPATLSVSPGERATLSCRASQSVSSNLAWYQEKPGQAPRLLIYGASTRATGIPARFSGSGSGTEFTLTISSLQSEDFAVYYCQQYNNWPPLTFGGGTKVEIK
For the molecule B4, the EC50 was 0.24 nM.

B5: Ab55h-PM18 (antibody, V domains shown)
VH: QVQLQESGPGLVKPSETLSLTCAVSGYSISSDYYWGWIRQPPGKGLEWIGSIYHSGYTYYNPSLKSRVTISVDTSKNQFSLKLSSVTAADTAVYYCARDSGWYVIAFDYWGQGTLVTVSS
VL: EIVMTQSPATLSVSPGERATLSCRASQSVSSNLAWYQEKPGQAPRLLIYGASTRATGIPARFSGSGSGTEFTLTISSLQSEDFAVYYCQQYNNWPPLTFGGGTKVEIK
Consider B5, for which the EC50 was found to be 0.21 nM. This EC50 and that of the molecule before are within 1.5-fold of each other.

B6: Ab55h-PM9 (antibody, V domains shown)
VH: QVQLQESGPGLVKPSETLSLTCAVSGYSISGDYYWGWIRQPPGKGLEWIGSIYHSGYTYYNPSLKSRVTISVDTSKNQFSLKLSSVTAADTAVYYCARDSGWYVIAFDYWGQGTLVTVSS
VL: EIVMTQSPATLSVSPGERATLSCRASQSVSSNLAWYQEKPGQAPRLLIYGATTRATGIPARFSGSGSGTEFTLTISSLQSEDFAVYYCQQYNNWPPLTFGGGTKVEIK
Consider B6, for which the response was half-maximal at 0.26 nM (EC50).

B7: Ab55h-PM12 (antibody, V domains shown)
VH: QVQLQESGPGLVKPSETLSLTCAVSGYSISGDYYWGWIRQPPGKGLEWIGSIYHSGYTYYNPSLKSRVTISVDTSKNQFSLKLSSVTAADTAVYYCARDSGWYVIAYDYWGQGTLVTVSS
VL: EIVMTQSPATLSVSPGERATLSCRASQSVSSNLAWYQEKPGQAPRLLIYGASTRATGIPARFSGSGSGTEFTLTISSLQSEDFAVYYCQQYNNWPPLTFGGGTKVEIK
In turn, B7 displayed a 50% effective concentration (EC50) of 0.24 nM.

B8: Ab55h-PM11 (antibody, V domains shown)
VH: QVQLQESGPGLVKPSETLSLTCAVSGYSISGDYYWGWIRQPPGKGLEWIGSIYHSGYTYYNPSLKSRVTISVDTSKNQFSLKLSSVTAADTAVYYCARDSGWYVIGFDYWGQGTLVTVSS
VL: EIVMTQSPATLSVSPGERATLSCRASQSVSSNLAWYQEKPGQAPRLLIYGASTRATGIPARFSGSGSGTEFTLTISSLQSEDFAVYYCQQYNNWPPLTFGGGTKVEIK
The molecule B8 returned an EC50 of 0.21 nM. The EC50 values of the last two molecules are within 1.5-fold of each other.

B9: Ab55h-PM7 (antibody, V domains shown)
VH: QVQLQESGPGLVKPSETLSLTCAVSGYSISGDYYWGWIRQPPGKGLEWIGSIYHSGYTYYNPSLKSRVTISVDTSKNQFSLKLSSVTAADTAVYYCARDSGWYVIAFDYWGQGTLVTVSS
VL: EIVMTQSPATLSVSPGERATLSCRASQSISSNLAWYQEKPGQAPRLLIYGASTRATGIPARFSGSGSGTEFTLTISSLQSEDFAVYYCQQYNNWPPLTFGGGTKVEIK
For B9, the EC50 was 0.18 nM.

B10: Ab55h-PM16 (antibody, V domains shown)
VH: QVQLQESGPGLVKPSETLSLTCAVSGYSISGDYYWGWIRQPPGKGLEWIGSIYHSGYTYYNPSLKSRVTISVDTSKNQFSLKLSSVTAADTAVYYCARDSGWYVIAFDYWGQGTLVTVSS
VL: EIVMTQSPATLSVSPGERATLSCRASQSVSSNLAWYQEKPGQAPRLLIYGASTRATGIPARFSGSGSGTEFTLTISSLQSEDFAVYYCQQYANWPPLTFGGGTKVEIK
As to B10, the 50% effective concentration (EC50) was 0.27 nM.

B11: Ab55h-PM19 (antibody, V domains shown)
VH: QVQLQESGPGLVKPSETLSLTCAVSGYSISGDYYWGWIRQPPGKGLEWIGSIYHSGYTYYNPSLKSRVTISVDTSKNQFSLKLSSVTAADTAVYYCARDSGWYVIAFDYWGQGTLVTVSS
VL: EIVMTQSPATLSVSPGERATLSCRASQSVGSNLAWYQEKPGQAPRLLIYGASTRATGIPARFSGSGSGTEFTLTISSLQSEDFAVYYCQQYNNWPPLTFGGGTKVEIK
Turning to B11, the concentration for a half-maximal effect (EC50) was 0.12 nM.

B12: Ab55h-PM15 (antibody, V domains shown)
VH: QVQLQESGPGLVKPSETLSLTCAVSGYSISGDYYWGWIRQPPGKGLEWIGSIYHSGYTYYNPSLKSRVTISVDTSKNQFSLKLSSVTAADTAVYYCARDSGAYVIAFDYWGQGTLVTVSS
VL: EIVMTQSPATLSVSPGERATLSCRASQSVSSNLAWYQEKPGQAPRLLIYGASTRATGIPARFSGSGSGTEFTLTISSLQSEDFAVYYCQQYNNWPPLTFGGGTKVEIK
The molecule B12 came in with an EC50 of 0.32 nM.

B13: Ab55h-PM14 (antibody, V domains shown)
VH: QVQLQESGPGLVKPSETLSLTCAVSGYSISGDYYWGWIRQPPGKGLEWIGSIYHSGYTYYNPSLKSRVTISVDTSKNQFSLKLSSVTAADTAVYYCARDSGFYVIAFDYWGQGTLVTVSS
VL: EIVMTQSPATLSVSPGERATLSCRASQSVSSNLAWYQEKPGQAPRLLIYGASTRATGIPARFSGSGSGTEFTLTISSLQSEDFAVYYCQQYNNWPPLTFGGGTKVEIK
In turn, B13 returned an EC50 of 0.32 nM.

B14: Ab55h-PM2 (antibody, V domains shown)
VH: QVQLQESGPGLVKPSETLSLTCAVSGYSISGDYYWGWIRQPPGKGLEWIGSIYHDGYTYYNPSLKSRVTISVDTSKNQFSLKLSSVTAADTAVYYCARDSGWYVIAFDYWGQGTLVTVSS
VL: EIVMTQSPATLSVSPGERATLSCRASQSVSSNLAWYQEKPGQAPRLLIYGASTRATGIPARFSGSGSGTEFTLTISSLQSEDFAVYYCQQYNNWPPLTFGGGTKVEIK
Turning to B14, a half-maximal response (EC50) required 0.52 nM.

B15: Ab55h-PM20 (antibody, V domains shown)
VH: QVQLQESGPGLVKPSETLSLTCAVSGYSISGDYYWGWIRQPPGKGLEWIGSIYHSGYTYYNPSLKSRVTISVDTSKNQFSLKLSSVTAADTAVYYCARDSGWYVIAFDYWGQGTLVTVSS
VL: EIVMTQSPATLSVSPGERATLSCRASQSVYSNLAWYQEKPGQAPRLLIYGASTRATGIPARFSGSGSGTEFTLTISSLQSEDFAVYYCQQYNNWPPLTFGGGTKVEIK
B15 gave a 50% effective concentration (EC50) of 0.19 nM. This EC50 lies about 2.7-fold lower than the previous one.

B16: Ab55h-PM6 (antibody, V domains shown)
VH: QVQLQESGPGLVKPSETLSLTCAVSGYSISGDYYWGWIRQPPGKGLEWIGSIYHSGYTYYNPSLKSRVTISVDTSKNQFSLKLSSVTAADTAVYYCARDSGWYVIAFDIWGQGTLVTVSS
VL: EIVMTQSPATLSVSPGERATLSCRASQSVSSNLAWYQEKPGQAPRLLIYGASTRATGIPARFSGSGSGTEFTLTISSLQSEDFAVYYCQQYNNWPPLTFGGGTKVEIK
Consider B16, for which the EC50 came out at 0.15 nM.

B17: Ab55h-PM13 (antibody, V domains shown)
VH: QVQLQESGPGLVKPSETLSLTCAVSGYSISGDYYWGWIRQPPGKGLEWIGSIYHSGYTYYNPSLKSRVTISVDTSKNQFSLKLSSVTAADTAVYYCARDVGWYVIAFDYWGQGTLVTVSS
VL: EIVMTQSPATLSVSPGERATLSCRASQSVSSNLAWYQEKPGQAPRLLIYGASTRATGIPARFSGSGSGTEFTLTISSLQSEDFAVYYCQQYNNWPPLTFGGGTKVEIK
For B17, the EC50 was 0.22 nM.

B18: Ab55h-PM17 (antibody, V domains shown)
VH: QVQLQESGPGLVKPSETLSLTCAVSGYSISGDYYWGWIRQPPGKGLEWIGSIYHSGYTYYNPSLKSRVTISVDTSKNQFSLKLSSVTAADTAVYYCARDSGWYVIAFDYWGQGTLVTVSS
VL: EIVMTQSPATLSVSPGERATLSCRASQSVSSNLAWYQEKPGQAPRLLIYGASTRATGIPARFSGSGSGTEFTLTISSLQSEDFAVYYCQQYNVWPPLTFGGGTKVEIK
In turn, B18 displayed an EC50 of 0.31 nM.

B19: Ab55h-PM10 (antibody, V domains shown)
VH: QVQLQESGPGLVKPSETLSLTCAVSGYSISGDYYWGWIRQPPGKGLEWIGSIYHSGYTYYNPSLKSRVTISVDTSKNQFSLKLSSVTAADTAVYYCARDSGWYVIAFDYWGQGTLVTVSS
VL: EIVMTQSPATLSVSPGERATLSCRASQSVSSNLAWYQEKPGQAPRLLIYGASSRATGIPARFSGSGSGTEFTLTISSLQSEDFAVYYCQQYNNWPPLTFGGGTKVEIK
B19 displayed an EC50 of 0.24 nM.

B20: Ab55h-PM3 (antibody, V domains shown)
VH: QVQLQESGPGLVKPSETLSLTCAVSGYSISGDYYWGWIRQPPGKGLEWIGSIYHSAYTYYNPSLKSRVTISVDTSKNQFSLKLSSVTAADTAVYYCARDSGWYVIAFDYWGQGTLVTVSS
VL: EIVMTQSPATLSVSPGERATLSCRASQSVSSNLAWYQEKPGQAPRLLIYGASTRATGIPARFSGSGSGTEFTLTISSLQSEDFAVYYCQQYNNWPPLTFGGGTKVEIK
Regarding B20, the EC50 is 0.42 nM.

These data come from patent publication US20210355220A1 (TIKCRO TECHNOLOGIES, published 2021).
